Data published in the supplement of paper PMC11246515.
± gives the standard deviation of the averaged measurements.

Test: total protein half-life in vivo (active degradation + dilution); higher = more stable protein
[1] = E. coli NCM3722 delta-clpP delta-lon delta-hslV, growth: N-lim chemostat, doubling time 6 h
[2] = E. coli NCM3722 delta-clpP, growth: N-lim chemostat, doubling time 6 h
[3] = E. coli NCM3722 delta-hslV, growth: N-lim chemostat, doubling time 6 h
[4] = E. coli NCM3722 delta-lon, growth: N-lim chemostat, doubling time 6 h
[5] = E. coli NCM3722 delta-smpB, growth: N-lim chemostat, doubling time 6 h
[6] = wild type E. coli NCM3722, growth: C-lim chemostat, doubling time 3 h
[7] = wild type E. coli NCM3722, growth: C-lim chemostat, doubling time 6 h
[8] = wild type E. coli NCM3722, growth: C-lim chemostat, doubling time 12 h
[9] = wild type E. coli NCM3722, growth: N-lim chemostat, doubling time 6 h
[10] = wild type E. coli NCM3722, growth: N-lim chemostat, doubling time 12 h
[11] = wild type E. coli NCM3722, growth: P-lim chemostat, doubling time 6 h
[12] = wild type E. coli NCM3722, growth: P-lim chemostat, doubling time 12 h

Sequence | total protein half-life in vivo [1] | total protein half-life in vivo [2] | total protein half-life in vivo [3] | total protein half-life in vivo [4] | total protein half-life in vivo [5] | total protein half-life in vivo [6] | total protein half-life in vivo [7] | total protein half-life in vivo [8] | total protein half-life in vivo [9] | total protein half-life in vivo [10] | total protein half-life in vivo [11] | total protein half-life in vivo [12]
MVLGKPQTDPTLEWFLSHCHIHKYPSKSTLIHQGEKAETLYYIVKGSVAVLIKDEEGKEMILSYLNQGDFIGELGLFEEGQERSAWVRAKTACEVAEISYKKFRQLIQVNPDILMRLSAQMARRLQVTSEKVGNLAFLDVTGRIAQTLLNLAKQPDAMTHPDGMQIKITRQEIGQIVGCSRETVGRILKMLEDQNLISAHGKTIVVYGTR [P0ACJ8] | 5.31 ± 0.51 h | 5.17 ± 0.55 h | 4.68 ± 0.23 h | 4.86 ± 0.09 h | 4.55 ± 0.33 h | 2.92 ± 0.22 h | 5.84 ± 0.064 h | 10 ± 0.63 h | 4.582 ± 0.038 h | 7.59 ± 0.18 h | 5.09 ± 0.27 h | 9.72 ± 0.62 h
MVNLVIVSHSSRLGEGVGELARQMLMSDSCKIAIAAGIDDPQNPIGTDAVKVMEAIESVADADHVLVMMDMGSALLSAETALELLAPEIAAKVRLCAAPLVEGTLAATVSAASGADIDKVIFDAMHALEAKREQLGLPSSDTEISDTCPAYDEEARSLAVVIKNRNGLHVRPASRLVYTLSTFNADMLLEKNGKCVTPESINQIALLQVRYNDTLRLIAKGPEAEEALIAFRQLAEDNFGETEEVAPPTLRPVPPVSGKAFYYQPVLCTVQAKSTLTVEEEQDRLRQAIDFTLLDLMTLTAKAEASGLDDIAAIFSGHHTLLDDPELLAAASELLQHEHCTAEYAWQQVLKELSQQYQQLDDEYLQARYIDVDDLLHRTLVHLTQTKEELPQFNSPTILLAENIYPSTVLQLDPAVVKGICLSAGSPVSHSALIARELGIGWICQQGEKLYAIQPEETLTLDVKTQRFNRQG | 5.07 ± 0.8 h | 5.24 ± 0.96 h | 4.67 ± 0.96 h | 4.07 ± 0.32 h | 3.51 ± 0.52 h | 3.39 ± 0.48 h | 6.02 ± 0.54 h | 10 ± 0.98 h | 4.01 ± 0.29 h | 6.3 ± 0.85 h | 5.33 ± 0.27 h | 11.4 ± 1.5 h
MVPSTFSRLKAARCLPVVLAALIFAGCGTHTPDQSTAYMQGTAQADSAFYLQQMQQSSDDTRINWQLLAIRALVKEGKTGQAVELFNQLPQELNDAQRREKTLLAVEIKLAQKDFAGAQNLLAKITPADLEQNQQARYWQAKIDASQGRPSIDLLRALIAQEPLLGAKEKQQNIDATWQALSSMTQEQANTLVINADENILQGWLDLQRVWFDNRNDPDMMKAGIADWQKRYPNNPGAKMLPTQLVNVKAFKPASTNKIALLLPLNGQAAVFGRTIQQGFEAAKNIGTQPVAAQVAAAPAADVAEQPQPQTVDGVASPAQASVSDLTGEQPAAQPVPVSAPATSTAAVSAPANPSAELKIYDTSSQPLSQILSQVQQDGASIVVGPLLKNNVEELLKSNTPLNVLALNQPENIENRVNICYFALSPEDEARDAARHIRDQGKQAPLVLIPRSSLGDRVANAFAQEWQKLGGGTVLQQKFGSTSELRAGVNGGSGIALTGSPITLRATTDSGMTTNNPTLQTTPTDDQFTNNGGRVDAVYIVATPGEIAFIKPMIAMRNGSQSGATLYASSRSAQGTAGPDFRLEMEGLQYSEIPMLAGGNLPLMQQALSAVNNDYSLARMYAMGVDAWSLANHFSQMRQVQGFEINGNTGSLTANPDCVINRNLSWLQYQQGQVVPVS | 5.639 ± 0.023 h | 5.812 ± 0.034 h | 5.89 ± 0.37 h | 6.49 ± 0.16 h | 6.45 ± 0.83 h | 3.11 ± 0.16 h | 5.614 ± 0.025 h | 11.2 ± 1 h | 6.03 ± 0.11 h | 13.1 ± 1.8 h | 5.91 ± 0.45 h | 11.5 ± 0.52 h
MVQRITIAPQGPEFSRFVMGYWRLMDWNMSARQLVSFIEEHLDLGVTTVDHADIYGGYQCEAAFGEALKLAPHLRERMEIVSKCGIATTAREENVIGHYITDRDHIIKSAEQSLINLATDHLDLLLIHRPDPLMDADEVADAFKHLHQSGKVRHFGVSNFTPAQFALLQSRLPFTLATNQVEISPVHQPLLLDGTLDQLQQLRVRPMAWSCLGGGRLFNDDYFQPLRDELAVVAEELNAGSIEQVVYAWVLRLPSQPLPIIGSGKIERVRAAVEAETLKMTRQQWFRIRKAALGYDVP | 5.21 ± 0.14 h | 5.59 ± 0.96 h | 4.95 ± 0.13 h | 5.07 ± 0.77 h | 4.67 ± 0.12 h | 2.86 ± 0.26 h | 5.71 ± 0.085 h | 9.47 ± 0.64 h | 5 ± 0.25 h | 8.62 ± 0.69 h | 5.79 ± 0.17 h | 10.9 ± 0.49 h
MVSLEKNDHLMLARQLPLKSVALILAGGRGTRLKDLTNKRAKPAVHFGGKFRIIDFALSNCINSGIRRMGVITQYQSHTLVQHIQRGWSFFNEEMNEFVDLLPAQQRMKGENWYRGTADAVTQNLDIIRRYKAEYVVILAGDHIYKQDYSRMLIDHVEKGARCTVACMPVPIEEASAFGVMAVDENDKIIEFVEKPANPPSMPNDPSKSLASMGIYVFDADYLYELLEEDDRDENSSHDFGKDLIPKITEAGLAYAHPFPLSCVQSDPDAEPYWRDVGTLEAYWKANLDLASVVPELDMYDRNWPIRTYNESLPPAKFVQDRSGSHGMTLNSLVSGGCVISGSVVVQSVLFSRVRVNSFCNIDSAVLLPEVWVGRSCRLRRCVIDRACVIPEGMVIGENAEEDARRFYRSEEGIVLVTREMLRKLGHKQER [P0A6V1] | 6.16 ± 0.19 h |  | 6.42 ± 1 h | 5.94 ± 0.29 h | 5.54 ± 0.52 h | 3.34 ± 0.11 h | 6.04 ± 0.72 h | 12.2 ± 0.15 h | 5.535 ± 0.042 h | 9.99 ± 0.24 h | 6.46 ± 0.65 h | 12.2 ± 0.32 h
MVTHRQRYREKVSQMVSWGHWFALFNILLSLVIGSRYLFIADWPTTLAGRIYSYVSIIGHFSFLVFATYLLILFPLTFIVGSQRLMRFLSVILATAGMTLLLIDSEVFTRFHLHLNPIVWQLVINPDENEMARDWQLMFISVPVILLLELVFATWSWQKLRSLTRRRRFARPLAAFLFIAFIASHVVYIWADANFYRPITMQRANLPLSYPMTARRFLEKHGLLDAQEYQRRLIEQGNPDAVSVQYPLSELRYRDMGTGQNVLLITVDGLNYSRFEKQMPALAGFAEQNISFTRHMSSGNTTDNGIFGLFYGISPSYMDGILSTRTPAALITALNQQGYQLGLFSSDGFTSPLYRQALLSDFSMPSVRTQSDEQTATQWINWLGRYAQEDNRWFSWVSFNGTNIDDSNQQAFARKYSRAAGNVDDQINRVLNALRDSGKLDNTVVIITAGRGIPLSEEEETFDWSHGHLQVPLVIHWPGTPAQRINALTDHTDLMTTLMQRLLHVSTPASEYSQGQDLFNPQRRHYWVTAADNDTLAITTPKKTLVLNNNGKYRTYNLRGERVKDEKPQLSLLLQVLTDEKRFIAN [P0AD27] | 6.51 ± 0.23 h |  |  | 5.92 ± 0.086 h | 6.0496 ± 0.0024 h | 3.37 ± 0.44 h | 5.62 ± 0.63 h | 12.8 ± 0.27 h | 6.18 ± 0.89 h | 12.9 ± 1.1 h | 6.34 ± 0.1 h | 11.8 ± 0.67 h
MVTKKQSRVPGRPRRFAPEQAISAAKVLFHQKGFDAVSVAEVTDYLGINPPSLYAAFGSKAGLFSRVLNEYVGTEAIPLADILRDDRPVGECLVEVLKEAARRYSQNGGCAGCMVLEGIHSHDPQARDIAVQYYHAAETTIYDYIARRHPQRAQCVTDFMSTVMSGLSAKAREGHSIEQLCATAAMAGEAIKTILEE | 4.87 ± 0.78 h | 4.19 ± 0.7 h |  | 5.66 ± 2.6 h | 2.87 ± 0.24 h | 2.66 ± 0.17 h | 4.19 h | 4.59 ± 4.8 h | 3.48 ± 0.37 h | 6.59 ± 0.21 h |  | 6.26 h
